Values joined by “and” are separate entries in the source; they are usually repeats but may differ in a detail not shown here. Equal values may be shown once.
How the values were obtained:
full-length gephyrin rC4 [1] = target: full-length gephyrin rC4
full-length gephyrin rC4 [2] = experiment: ITC
[3] = target: gephyrin E-domain (GephE); experiment: ITC
full-length gephyrin rC4 [4] = experiment: cross-linking; EDC cross-linking of purified full-length gephyrin and βL-wt, 6% SDS-PAGE with Coomassie staining, trimer band extracted, tryptic digestion and LC-MS/MS peptide mass fingerprinting
[5] = target: gephyrin E-domain (GephE); experiment: not stated; data not shown; physiologic salt concentrations and pH 7.4-8.0

| Substance | Deff of extrasynaptic trajectories above the threshold of 0.02 µm^2/s (sptPALM, rat spinal cord neurons), Q1/Q2/Q3; value: the median Q2 (full-length gephyrin rC4 [1]) [µm^2 · s^−1] | Deff of synaptic trajectories above the threshold of 0.02 µm^2/s (sptPALM, rat spinal cord neurons), Q1/Q2/Q3; value: the median Q2 (full-length gephyrin rC4 [1]) [µm^2 · s^−1] | explored area of extrasynaptic trajectories above the threshold of 0.02 µm^2/s (sptPALM, rat spinal cord neurons), Q1/Q2/Q3; value: the median Q2 (full-length gephyrin rC4 [1]) [µm^2] | explored area of synaptic trajectories above the threshold of 0.02 µm^2/s (sptPALM, rat spinal cord neurons), Q1/Q2/Q3; value: the median Q2 (full-length gephyrin rC4 [1]) [µm^2] | dH (full-length gephyrin rC4 [2]) [kcal/mol] | further results |
| --- | --- | --- | --- | --- | --- | --- |
| GlyRβ-geph^-: mEos4b-tagged full-length human GlyRβ with F398A/I400A (from UniProt P48167-1 23-497) (receptor) | 0.11 | 0.09 | 0.00183 | 0.00151 |  |  |
| GlyR β-loop βL-HI, residues 394-426 (from UniProt P20781 416-448) (peptide) |  |  |  |  | -21.5 |  |
| GlyR β-loop βL-LO, residues 378-413 (from UniProt P20781 400-435) (peptide) |  |  |  |  | -11.8 |  |
| mEos4b-tagged full-length human GlyRβ subunit, wild type (from UniProt P48167-1 23-497) (receptor) | 0.05 | 0.04 | 0.00091 | 0.00073 |  |  |
| GlyRβ-D407P/F408G: mEos4b-tagged full-length human GlyRβ with D407P and F408G (from UniProt P48167-1 23-497) (receptor) | 0.09 | 0.04 | 0.00152 | 0.00086 |  |  |
| GlyR β-loop wild type, residues 378-426 of the GlyRβ subunit (from UniProt P20781 400-448) (peptide) |  |  |  |  |  | dH [3]: -16.1 kcal/mol |
| full-length gephyrin rC4 (natural protein) |  |  |  |  |  | stoichiometry N (full-length gephyrin rC4 [4]): 2 and 3 |
| GlyRβ-HI: mEos4b-tagged full-length human GlyRβ with deletion ΔV378-L393 (from UniProt P48167-1 23-497) (receptor) | 0.05 | 0.04 | 0.00096 | 0.00077 |  |  |
| core βL peptide, residues 394-413 (from UniProt P20781 416-435) |  |  |  |  | -11 |  |
| gephyrin E-domain (GephE) (domain or fragment) |  |  |  |  |  | stoichiometry N [5]: 2 |
